Measurements: the supplement of paper PMC12764529
± gives the half width of the 95% confidence interval.

Columns and labels:
[1] = folding stability dG unfold (combined trypsin and chymotrypsin); higher = more stable
Summary of the method: (§1)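 Designed mini-proteins (under 80 residues, no cysteine) in a PA-tagged cDNA display construct were digested with trypsin and chymotrypsin. Each protease was used at 11 concentrations (threefold dilutions) plus a no-protease condition, followed by sequencing. K50 was inferred by Bayesian fitting of sequencing counts, and unfolding free energy was derived against a sequence-predicted unfolded-state K50 and a shared folded-state K50, per protease or combined. Only designs with AlphaFold2 dimer inter-PAE above 15 were kept.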

[2] = folding stability dG unfold from trypsin proteolysis; higher = more stable
Summary of the method: as §1

[3] = folding stability dG unfold from chymotrypsin proteolysis; higher = more stable
Summary of the method: as §1

SAGGSAGGSEEEVEIVDVEIEEKDGKLVIRAKIRNKETGELYEVTLVFDKETGELHLEVRKLPSAGGSAGGS [r12_14_TrROS_Hall]
folding stability dG unfold [1]: 3.95 ± 0.15 kcal/mol
folding stability dG unfold [2]: 3.99 ± 0.097 kcal/mol
folding stability dG unfold [3]: 3.78 ± 0.13 kcal/mol

SAGGSAGGSEEVVVVEVEGELVVVTKEETVTVVPAPPPPPLTAEQRALAKELEKLGLEVEIRDSAGGSAGGS [r12_172_TrROS_Hall]
folding stability dG unfold [1]: -0.38 ± 0.37 kcal/mol
folding stability dG unfold [2]: -0.192 ± 0.16 kcal/mol
folding stability dG unfold [3]: -0.505 ± 0.11 kcal/mol

SAGGSAGGSEITIFIKGLPDPEAIADQIADAFGYPVKDVDVQRMPNNPWMMITVTYNGKEITISAGGSAGGS [r12_935_TrROS]
folding stability dG unfold [1]: 1.86 ± 0.083 kcal/mol
folding stability dG unfold [2]: 1.58 ± 0.022 kcal/mol
folding stability dG unfold [3]: 1.97 ± 0.03 kcal/mol

SAGGSAGGSEITITLDEETGELHITVPESVKEVKIKVNGEEKTVTLKPGQTLTIPLENVEIEESAGGSAGGS [r20_26_TrROS_Hall]
folding stability dG unfold [1]: 1.7 ± 0.2 kcal/mol
folding stability dG unfold [2]: 1.75 ± 0.11 kcal/mol
folding stability dG unfold [3]: 1.55 ± 0.063 kcal/mol

SAGGSAGGSEITLVFKTKEEAEKAAEELAKKYNVEVTVEENEETGLYVVTIKLPENGKEITILSAGGSAGGS [r12_635_TrROS_Hall]
folding stability dG unfold [1]: 1.96 ± 0.19 kcal/mol
folding stability dG unfold [2]: 1.68 ± 0.064 kcal/mol
folding stability dG unfold [3]: 2.03 ± 0.059 kcal/mol

SAGGSAGGSEKEGTLLVKLINPENPEEKVIPLKFKVKTKEDVDTFLENIKKKYPGVTVEVEDLSAGGSAGGS [r12_65_TrMRF]
folding stability dG unfold [1]: 0.643 ± 0.17 kcal/mol
folding stability dG unfold [2]: 0.659 ± 0.049 kcal/mol
folding stability dG unfold [3]: 0.684 ± 0.21 kcal/mol

SAGGSAGGSEKEIEIELPEGAEIVEIDEEKGVITVRVNGKLIEIEIKPVKVEKVEVELPPEEESAGGSAGGS [r12_243_TrROS_Hall]
folding stability dG unfold [1]: 2.4 ± 0.17 kcal/mol
folding stability dG unfold [2]: 2.77 ± 0.19 kcal/mol
folding stability dG unfold [3]: 1.73 ± 0.13 kcal/mol

SAGGSAGGSEKEIEVNGKKITIEKNEDGSYKLIIEVNGKKYEITLSLEELKKKNLTIEELLKKSAGGSAGGS [r20_90_TrROS_Hall]
folding stability dG unfold [1]: 3.26 ± 0.16 kcal/mol
folding stability dG unfold [2]: 1.92 ± 0.072 kcal/mol
folding stability dG unfold [3]: 3.61 ± 0.13 kcal/mol

SAGGSAGGSEKEVYVRNENGELYRFRAKAAPKLKLKLKLELERDENGNLSLRLELEVVSEEDLSAGGSAGGS [r12_1027_TrROS_Hall]
folding stability dG unfold [1]: 4.63 ± 0.4 kcal/mol
folding stability dG unfold [2]: 3.57 ± 0.14 kcal/mol
folding stability dG unfold [3]: 5.18 ± 0.15 kcal/mol

SAGGSAGGSEKKFKIVSVKVEYNKETGTVTIEVEIYDEKTGKLVLKATITINKNGELKITLEPSAGGSAGGS [r12_115_TrROS_Hall]
folding stability dG unfold [1]: > 6 kcal/mol
folding stability dG unfold [2]: 3.9 ± 0.45 kcal/mol
folding stability dG unfold [3]: 5.26 ± 0.46 kcal/mol

SAGGSAGGSEKPEVEKITLEITLTDEDGNKHTIKVELVRNAKTKKYYLRITLEDGSEFVFEIDSAGGSAGGS [r12_286_TrROS_Hall]
folding stability dG unfold [1]: 4.71 ± 0.13 kcal/mol
folding stability dG unfold [2]: 3.88 ± 0.14 kcal/mol
folding stability dG unfold [3]: 4.83 ± 0.14 kcal/mol

SAGGSAGGSEKVTIRFPAKELRERFPNATPEQIADRIAKKFPNIKRIEVEQEPGYYRITVQVESAGGSAGGS [r12_590_TrROS]
folding stability dG unfold [1]: 2.15 ± 0.12 kcal/mol
folding stability dG unfold [2]: 2.58 ± 0.12 kcal/mol
folding stability dG unfold [3]: 1.49 ± 0.043 kcal/mol

SAGGSAGGSELNIEKIVVLDYDPETGLAYVKIFYGDGEVKEFKVKSLEELKEKFPDVEILEKGSAGGSAGGS [r12_403_TrMRF]
folding stability dG unfold [1]: 4.43 ± 0.065 kcal/mol
folding stability dG unfold [2]: 3.64 ± 0.12 kcal/mol
folding stability dG unfold [3]: 4.57 ± 0.084 kcal/mol

SAGGSAGGSELPIKEITVTSYDPKTGKYTVTITQGEGPTYTTTATSPEEVKKRYPDVKVTTSGSAGGSAGGS [r12_403_JUSTAS]
folding stability dG unfold [1]: 0.718 ± 0.056 kcal/mol
folding stability dG unfold [2]: 0.434 ± 0.053 kcal/mol
folding stability dG unfold [3]: 0.786 ± 0.035 kcal/mol

SAGGSAGGSEPVTVMFWFDSPEEIDELIDELKGAGIKKVEMEPFPGRYWLTITVDGAEIHIMFSAGGSAGGS [r12_846_TrROS]
folding stability dG unfold [1]: 3.29 ± 0.14 kcal/mol
folding stability dG unfold [2]: 2.45 ± 0.067 kcal/mol
folding stability dG unfold [3]: 3.786 ± 0.031 kcal/mol

SAGGSAGGSEPVVLTLPTPRGGRITITYDPSSNTATVTLPDGTVVTLSVTSVAEAKAAALAALSAGGSAGGS [r12_866_JUSTAS]
folding stability dG unfold [1]: 3.515 ± 0.025 kcal/mol
folding stability dG unfold [2]: 3.18 ± 0.04 kcal/mol
folding stability dG unfold [3]: 3.698 ± 0.018 kcal/mol

SAGGSAGGSESKITILVLDEETQELYLIEVTLKYNPETGELETEMKIEKITLKPGEKLDLKDLSAGGSAGGS [r12_700_TrROS_Hall]
folding stability dG unfold [1]: 2.94 ± 0.2 kcal/mol
folding stability dG unfold [2]: 2.43 ± 0.2 kcal/mol
folding stability dG unfold [3]: 3.28 ± 0.13 kcal/mol

SAGGSAGGSETVTLELTLEDGRTLRIEFDPETQRLTVTFPDGSKQEIEVETLDDALAALLEALSAGGSAGGS [r12_866_TrROS_Hall]
folding stability dG unfold [1]: 3.6 ± 0.062 kcal/mol
folding stability dG unfold [2]: 2.91 ± 0.11 kcal/mol
folding stability dG unfold [3]: 3.81 ± 0.072 kcal/mol

SAGGSAGGSFEFPENRPNAKVKVVVQRPDGSPEEFEAEVLPDGTVTLDLPDYPIDRILSVEFGSAGGSAGGS [r12_477_TrMRF]
folding stability dG unfold [1]: -0.221 ± 0.17 kcal/mol
folding stability dG unfold [2]: 0.0306 ± 0.12 kcal/mol
folding stability dG unfold [3]: -0.377 ± 0.19 kcal/mol

SAGGSAGGSFRIDPEKIEKVKHHRNPNGGGYHTIRLPGGPVKIPFRGMDPGDMEDQVKNFLKNSAGGSAGGS [r12_585_TrROS]
folding stability dG unfold [1]: 0.236 ± 0.14 kcal/mol
folding stability dG unfold [2]: 0.161 ± 0.11 kcal/mol
folding stability dG unfold [3]: 0.267 ± 0.19 kcal/mol

SAGGSAGGSFVDPDGYKVIEFPIPMDDPGRIKEEVMDQFNLKDVKVEWEPTPGWYWVSIIVEPSAGGSAGGS [r12_929_TrROS]
folding stability dG unfold [1]: 0.832 ± 0.14 kcal/mol
folding stability dG unfold [2]: 0.74 ± 0.093 kcal/mol
folding stability dG unfold [3]: 0.815 ± 0.16 kcal/mol
